# Test results reported in US20220290147A1, “SYSTEM FOR REGULATING GENE EXPRESSION” (Baylor College of Medicine, priority 2019, published 2022).
# Residue numbers refer to the chain shown, from its start.
# B1: Y209: SEQ ID NO: 8; polyA switch construct (nucleic acid)
# DNA: TCAGATCGCCTGGAGACGCCATCCACGCTGTTTTGACCTCCATAGAAGACACCGGGACCGATCCAGCCTCCCCTCGAAGCTGATCCTGAGAACTTCAGGGTGAGTCTATGGGACCCTTGATGTTTTCTTTCCCCTTCTTTTCTATGGTTAAGTTCATGTCATAGGAAGGGGAGAAGTAACAGGGTACACATATTGACCAAATCAGGGTAATTTTGCATTTGTAATTTTAAAAAATGCTTTCTTCTTTTAATATACTTTTTTGTTTATCTTATTTCTAATACTTTCCCTAATCTCTTTCTTTCAGGGCAATAATGATACAATGTATCATGCCTCTTTGCACCATTCTAAAGAATAACAGTGATAATTTCTGGGTTAAGGCAATAGCAATATTTCTGCATATAAATATTTCTGCATATAAATTGTAACTGATGTAAGAGGTTTCATATTGCTAATAGCAGCTACAATCCAGCTACCATTCTGCTTTTATTTTATGGTTGGGATAAGGCTGGATTATTCTGAGTCCAAGCTAGGCCCTTTTGCTAATCATGTTCATACCTCTTATCTTCCTCCCACAGCTCCTGGGCAACGTGCTGGTCTGTGTGCTGGCCCATCACTTTGGCAAAGAATTGGCTAGCCACACACACAAATCTGGGGAGGTGAAGAATACGACCACCTGCGTTTTATACTTCCGCGAGATCTGGGGAGGTGAAGAATACGACCACCTAATAAGATTACCGAAAGGCAATCTTATTAAAACATACCAGATCTTGCGAGGGTGTTTGTGGCAAAACATACCAGATCGAATTCGATCTGGGGAGGTGAAGAATACGACCACCTGCTACAAGTACCTAAATAAAGTATAAAGTGCAAAACATACCAGATCTGTGTGTTGGTTTTTTGTGTGTTAACGGGGGAGGGGGAGGAAAGGGGGAGGGGGAGGAAAGGGGGAGGGGGAGGAAAGGGGGAGGGGGAGCGGCCGCCAACAACAACAACAACAACAACAACAACAACAACAACAACATAACAGTGTTCACTAGCAACCTCAAACAGACACCATG
# B2: Y211: SEQ ID NO: 9; polyA switch construct (nucleic acid)
# DNA: B1 DNA with G691A, C771T
# B3: Y196CAA-4MAZ: SEQ ID NO: 6; Y-shape polyA switch construct with 4MAZ (nucleic acid)
# DNA: TCAGATCGCCTGGAGACGCCATCCACGCTGTTTTGACCTCCATAGAAGACACCGGGACCGATCCAGCCTCCCCTCGAAGCTGATCCTGAGAACTTCAGGGTGAGTCTATGGGACCCTTGATGTTTTCTTTCCCCTTCTTTTCTATGGTTAAGTTCATGTCATAGGAAGGGGAGAAGTAACAGGGTACACATATTGACCAAATCAGGGTAATTTTGCATTTGTAATTTTAAAAAATGCTTTCTTCTTTTAATATACTTTTTTGTTTATCTTATTTCTAATACTTTCCCTAATCTCTTTCTTTCAGGGCAATAATGATACAATGTATCATGCCTCTTTGCACCATTCTAAAGAATAACAGTGATAATTTCTGGGTTAAGGCAATAGCAATATTTCTGCATATAAATATTTCTGCATATAAATTGTAACTGATGTAAGAGGTTTCATATTGCTAATAGCAGCTACAATCCAGCTACCATTCTGCTTTTATTTTATGGTTGGGATAAGGCTGGATTATTCTGAGTCCAAGCTAGGCCCTTTTGCTAATCATGTTCATACCTCTTATCTTCCTCCCACAGCTCCTGGGCAACGTGCTGGTCTGTGTGCTGGCCCATCACTTTGGCAAAGAATTGGCTAGCCACACACACAAATCTGGGGAGGTGAAGAATACGACCACCTGCGTTTTATACTTCCACGAGATCTGGGGAGGTGAAGAATACGACCACCTAATAAGATTACCGAAAGGCAATCTTATTAAAACATACCAGATCTTGTGAGGGTGTTTGTGGCAAAACATACCAGATCGAATTCGATCTGGGGAGGTGAAGAATACGACCACCTGCTACAAGTACCTAATAAAGTATAAAGTGCAAAACATACCAGATCTGTGTGTTGGTTTTTTGTGTGTTAACGGGGGAGGGGGAGGAAAGGGGGAGGGGGAGGAAAGGGGGAGGGGGAGGAAAGGGGGAGGGGGAGCGGCCGCCAACAACAACAACAACAACAACAACAACAACAACAACAACATAACAGTGTTCACTAGCAACCTCAAACAGACACCATG
# B4: Y208: SEQ ID NO: 7; polyA switch construct (nucleic acid)
# DNA: TGGAGACGCCATCCACGCTGTTTTGACCTCCATAGAAGACACCGGGACCGATCCAGCCTCCCCTCGAAGCTGATCCTGAGAACTTCAGGGTGAGTCTATGGGACCCTTGATGTTTTCTTTCCCCTTCTTTTCTATGGTTAAGTTCATGTCATAGGAAGGGGAGAAGTAACAGGGTACACATATTGACCAAATCAGGGTAATTTTGCATTTGTAATTTTAAAAAATGCTTTCTTCTTTTAATATACTTTTTTGTTTATCTTATTTCTAATACTTTCCCTAATCTCTTTCTTTCAGGGCAATAATGATACAATGTATCATGCCTCTTTGCACCATTCTAAAGAATAACAGTGATAATTTCTGGGTTAAGGCAATAGCAATATTTCTGCATATAAATATTTCTGCATATAAATTGTAACTGATGTAAGAGGTTTCATATTGCTAATAGCAGCTACAATCCAGCTACCATTCTGCTTTTATTTTATGGTTGGGATAAGGCTGGATTATTCTGAGTCCAAGCTAGGCCCTTTTGCTAATCATGTTCATACCTCTTATCTTCCTCCCACAGCTCCTGGGCAACGTGCTGGTCTGTGTGCTGGCCCATCACTTTGGCAAAGAATTGGCTAGCCACACACACAAATCTGGGGAGGTGAAGAATACGACCACCTGCGTTTTATACTTCCGCGAGATCTGGGGAGGTGAAGAATACGACCACCTAATAAGATTACCGAAAGGCAATCTTATTAAAACATACCAGATCTTGCGAGGGTGTTTGTGGCAAAACATACCAGATCGAATTCGATCTGGGGAGGTGAAGAATACGACCACCTGCTACAAGTACCTAATAAAGTATAAAGTGCAAAACATACCAGATCTGTGTGTTGGTTTTTTGTGTGTTAACGGGGGAGGGGGAGGAAAGGGGGAGGGGGAGGAAAGGGGGAGGGGGAGGAAAGGGGGAGGGGGAGCGGCCGCCAACAACAACAACAACAACAACAACAACAACAACAACAACATAACAGTGTTCACTAGCAACCTCAAACAGACACCATG
# Legend:
# 293T cells = assay: Luciferase assay: tetracycline-induced transgene expression (induction in fold) from polyA aptamer constructs; type: cell-based, human
# Description: Cells were seeded in 96-well plates at a density of 25000-30000 cells/well. After 24 hours of incubation, each well was transfected with 50 ng of DNA vectors and were incubated with culture medium containing none or various concentration of tetracycline for an additional 18 hours. Luciferase activity was measured in relative light units (RLU) with a Polarstar Omega plate reader (BMG Labtech, USA). To make 36 mL of assay buffer, 144 μL 1M DTT, 108 μL M ATP, 252 μL 0.1M luciferin and 360 μl 0.05M CoA were added to 35 mL of basic buffer (25 mM Tricine, 0.5 mM EDTA-Na2, 0.54 mM Na-triphosphate, 16.3 mM MgSO4.7H2O, and 0.8% Triton X-100). After the cell medium was removed, 40 μL of assay buffer was added to each well, and luciferase activity was read twice with the Polarstar Omega plate reader. Induction in fold is calculated as the ratio of transgene expression in the presence vs absence of tetracycline.
# alternative splicing = assay: RT-PCR of tetracycline-induced alternative splicing; type: cell-based; settings: presence of Tc, compared to Y196CAA-2MAZ
# Description: Cells transfected with the respective constructs were grown 18 hours at 37° C. in medium in the absence or presence of tetracycline. Total RNA was isolated according to the protocol supplied with RiboPure™ RNA Purification Kit (Ambion, Austin, Tex.). For RT-PCR, RT was performed using SuperScript III (invitrogen, Carlsbad, Calif.) according to manufacturer's protocol and PCR was performed using the primers targeting the beginning of the transcript and reporter gene.
Molecule,effect on induction of inserting CAA repeats in the 5′UTR of the named construct (293T cells),Tc-induced alternative splicing (alternative splicing)
B1,higher induction,–
B2,higher induction,–
B3,–,far more pronounced
B4,higher induction,–
